The record followed here is article PMC6650902.

The assay has as its target TAF complex (TFIIDΔTBP) (S. cerevisiae) (UniProt P46677).

In turn, “TATA-box binding protein (TBP), recombinant (from UniProt P13393 1-240) (natural protein)” had a topoisomerase I assay on pDrive/RPS5: linking number change (ΔLk) with TAFs and TBP mixed in equimolar amounts before the plasmid (TAF complex alone +1.91) of 0.48.
